Data on 1 molecule can be found in paper PMC6325239 (Nature Communications, 2019).

This assay deals with T1, Munc13-1 MUN domain (residues 933–1407, EF, 1453–1531) (rat, UniProt Q62768 933-1407; Q62768 1453-1531).
T1 construct: Munc13-1, rat, residues 933-1407; linker that replaces residues 1408-1452; Munc13-1, rat, residues 1453-1531; Used in native PAGE, crystallization and, as far as told, fluorescence anisotropy; also called the MUN domain; source: E. coli BL21 DE3, pGEX-KG, purified (glutathione Sepharose, thrombin, SEC, ion exchange)
The experiment in a line: crystal structure; MUN crystals (20% PEG 3350, 0.1 M MES pH 5.8–6.3, 0.2 M Mg(NO3)2, 4 °C) soaked with the LR peptide at 1:4 (MUN:peptide); 2.8 Å. The note with it: both partners purified.

B1: Syb2 linker region peptide (residues 75–93 of Syb2) (peptide)
peptide: SQFETSAAKLKRKYWWKNL
notes: synaptobrevin-2 (Syb2), residues 75-93; also called LR; Syb2 peptide; source: synthetic peptide (Scilight Biotechnology, Beijing)
Turning to B1, the binding result is reported as “binds”.
